The results in this text go back to patent publication US20170307628A1.

This assay deals with recombinant human IL-17A (human) (UniProt Q16552). Put plainly: cell-based or functional assay.
Chain of recombinant human IL-17A (human) (Q16552 20-155 limits assumed): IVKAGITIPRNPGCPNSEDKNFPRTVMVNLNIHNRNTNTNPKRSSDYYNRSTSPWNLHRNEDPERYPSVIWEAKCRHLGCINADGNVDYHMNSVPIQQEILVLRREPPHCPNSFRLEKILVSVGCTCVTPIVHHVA

Turning to “human IL-17A receptor-Fc chimera (from UniProt Q96F46 33-320) (Fc fusion)”, the inhibition of IL-17A induced IL-6 production in NHDF cells, IC50 was 1 nM.
